For 25 sequences, self-aminoacylation results are on record in the supplement of paper PMC9233669.

This sample holds only a part of the variants without activity.

Data set [1] relates to biotinyl-Met-oxazolone. The data set can be described thus: self-aminoacylation, catalytic enhancement (BMO) (fold over background); higher = more active; k-Seq, kA / k0A0; sequences stand for … in GGGAAUGGAUCCACAUCUACGAAUUC…UUCACUGCAGACUUGACGAAGCUG
Put shortly: (§1)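 Mutagenized RNA pools with a 21-nt variable region (0.43 μM) reacted with each biotinyl-aminoacyl-oxazolone at 2–1250 μM. Reactions ran in 50 μL HEPES/NaCl/KCl/MgCl2/CaCl2 buffer with 5% acetonitrile, pH 6.9–7.0, for 90 minutes at room temperature. Streptavidin-captured RNA was quantified by triplicate qPCR and Illumina sequencing, and per-sequence fraction reacted was fit to a pseudo-first-order model with 1000 bootstraps. Catalytic enhancement is median kA divided by the uncatalyzed rate, the low-activity peak of a bimodal Gaussian fit.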

In data set [2] the test system is biotinyl-Trp-oxazolone. The data set can be described thus: self-aminoacylation, catalytic enhancement (BWO) (fold over background); higher = more active; k-Seq, kA / k0A0; sequences stand for … in GGGAAUGGAUCCACAUCUACGAAUUC…UUCACUGCAGACUUGACGAAGCUG
Put shortly:
as §1

Data set [3] has as its system biotinyl-Ile-oxazolone. The data set can be described thus: self-aminoacylation, catalytic enhancement (BIO) (fold over background); higher = more active; k-Seq, kA / k0A0; sequences stand for … in GGGAAUGGAUCCACAUCUACGAAUUC…UUCACUGCAGACUUGACGAAGCUG
Put shortly:
as §1

The subject of data set [4] is biotinyl-Leu-oxazolone. The data set can be described thus: self-aminoacylation, catalytic enhancement (BLO) (fold over background); higher = more active; k-Seq, kA / k0A0; sequences stand for … in GGGAAUGGAUCCACAUCUACGAAUUC…UUCACUGCAGACUUGACGAAGCUG
Put shortly:
as §1

The test system of data set [5] is biotinyl-Val-oxazolone. The data set can be described thus: self-aminoacylation, catalytic enhancement (BVO) (fold over background); higher = more active; k-Seq, kA / k0A0; sequences stand for … in GGGAAUGGAUCCACAUCUACGAAUUC…UUCACUGCAGACUUGACGAAGCUG
Put shortly:
as §1

Data set [6] relates to biotinyl-Phe-oxazolone. The data set can be described thus: self-aminoacylation, catalytic enhancement (BFO) (fold over background); higher = more active; k-Seq, kA / k0A0; sequences stand for … in GGGAAUGGAUCCACAUCUACGAAUUC…UUCACUGCAGACUUGACGAAGCUG
Summed up: as §1

For “AUUACGCUGGUCAUCGGGUGA [Fam2.1 aminoacylation ribozyme variant]”, the self-aminoacylation in data set [1] was determined as 8.98; in data set [2], 9.36; in data set [3] it was 6.21; in data set [4], 7.84; in data set [5], 7.46; in data set [6], 60.9.

In the case of “AAGUUUACUGAUAGUCGCAAG [Fam3.1 aminoacylation ribozyme variant]”, the self-aminoacylation in data set [1] amounted to 1.02; in data set [2] it was 1.55; in data set [3], 1.62; in data set [4] it was 1.38; in data set [5] it was 1.32; in data set [6] it was 2.67.

As to “AUUACCAUGGUCAUGGAGUGA [Fam2.1 aminoacylation ribozyme variant]”, the self-aminoacylation in data set [1] came out at 5.25; in data set [2], 7.35; in data set [3] it was 3.74; in data set [4] it was 5.78; in data set [5], 3.34; in data set [6], 24.3.

For “AUUACCCUGGCCAUCGAUUGA [Fam2.1 aminoacylation ribozyme variant]”, the self-aminoacylation came to 1.03 in data set [1]; 0.913 in data set [2]; 0.753 in data set [3]; 0.851 in data set [4]; 0.974 in data set [5]; 0.28 in data set [6].

For “AUUCACCCAGGUCAUCGGCUG [Fam2.2 aminoacylation ribozyme variant]”, the self-aminoacylation came out at 1.62 in data set [1]; 1.41 in data set [2]; 1.99 in data set [3]; 1.85 in data set [4]; 2 in data set [5]; 6.8 in data set [6].

As for “CCACUUCAAACAAUCGGUCCG [Fam1A.1 aminoacylation ribozyme variant]”, the self-aminoacylation in data set [1] is 1.18; in data set [2] it was 16.8; in data set [3], 1.08; in data set [4], 1.59; in data set [5] it was 1.49; in data set [6], 38.5.

On to “AAGUUUGCUAUUAGUCGAAAG [Fam3.1 aminoacylation ribozyme variant]”, for which the self-aminoacylation in data set [1] amounted to 1.18; in data set [2] it was 0.825; in data set [3] it was 1.07; in data set [4], 0.914; in data set [5] it was 0.834; in data set [6], 1.06.

For “AUUCACCUAGGUCAUCUGUUG [Fam2.2 aminoacylation ribozyme variant]”, the self-aminoacylation in data set [1] was found to be 0.564; in data set [2], 0.373; in data set [3], 0.795; in data set [4], 0.618; in data set [5], 0.693; in data set [6] it was 0.429.

Turning to “AUUCACCUAACUCAUCGGGUG [Fam2.2 aminoacylation ribozyme variant]”, the self-aminoacylation in data set [1] came out at 4.05; in data set [2], 3.17; in data set [3], 2.36; in data set [4], 4.47; in data set [5], 2.41; in data set [6], 22.8.

For the sequence “CCACUCUUAAAGCAAUCGGUC [Fam1B.1 aminoacylation ribozyme variant]”, the self-aminoacylation in data set [1] is 0.911; in data set [2], 0.693; in data set [3], 1.06; in data set [4], 0.993; in data set [5] it was 1.01; in data set [6] it was 0.711.

Take “ACUACCCUGGUCAUCAAGUGA [Fam2.1 aminoacylation ribozyme variant]”: the self-aminoacylation in data set [1] is 3.19; in data set [2], 2.76; in data set [3] it was 1.67; in data set [4], 2.37; in data set [5], 1.67; in data set [6] it was 5.04.

On to “CCACACUUCAAGCAAUCCAUC [Fam1B.1 aminoacylation ribozyme variant]”, for which the self-aminoacylation was found to be 0.433 in data set [1]; 0.529 in data set [2]; 0.553 in data set [3]; 0.446 in data set [4]; 0.774 in data set [5]; 0.752 in data set [6].

“UUUCACCUAGGGCAUCGGGUG [Fam2.2 aminoacylation ribozyme variant]”: the self-aminoacylation in data set [1] is 3.15; in data set [2] it was 3.56; in data set [3], 3.17; in data set [4], 3.49; in data set [5], 3.9; in data set [6], 26.

For the sequence “ACUCACCUAGAUCAUCGGGUG [Fam2.2 aminoacylation ribozyme variant]”, the self-aminoacylation in data set [1] was 2.99; in data set [2], 5.49; in data set [3] it was 2.9; in data set [4], 3.38; in data set [5] it was 3.13; in data set [6], 26.9.

Turning to “AUUUCCCUGGCCAUCGAGUGA [Fam2.1 aminoacylation ribozyme variant]”, the self-aminoacylation stood at 2.45 in data set [1]; 3.3 in data set [2]; 1.72 in data set [3]; 2.78 in data set [4]; 1.95 in data set [5]; 11.7 in data set [6].

As to “AGUCACCUUGGUCAUCGGGUG [Fam2.2 aminoacylation ribozyme variant]”, the self-aminoacylation in data set [1] was 5.4; in data set [2] it was 5.71; in data set [3] it was 4.89; in data set [4] it was 6.96; in data set [5] it was 4.85; in data set [6], 49.8.

Regarding “AUUACCCUGGUCAUCGAGUCG [Fam2.1 aminoacylation ribozyme variant]”, the self-aminoacylation in data set [1] is 0.797; in data set [2], 0.725; in data set [3] it was 0.765; in data set [4], 0.794; in data set [5] it was 0.976; in data set [6] it was 0.759.

Regarding “CUACUUAAGACAAUCGGUCUG [Fam1A.1 aminoacylation ribozyme variant]”, the self-aminoacylation turned out to be 0.909 in data set [1]; 0.71 in data set [2]; 0.775 in data set [3]; 0.668 in data set [4]; 0.783 in data set [5]; 0.817 in data set [6].

Regarding “AUUCACCCAGGUAAUCGGGUG [Fam2.2 aminoacylation ribozyme variant]”, the self-aminoacylation in data set [1] amounted to 3.1; in data set [2] it was 2.46; in data set [3], 2.26; in data set [4], 3.88; in data set [5], 2.14; in data set [6], 18.6.

Consider “AUUCACCUAUAUCAUCGGGUG [Fam2.2 aminoacylation ribozyme variant]”, for which the self-aminoacylation amounted to 4.73 in data set [1]; 4.4 in data set [2]; 2.84 in data set [3]; 6.53 in data set [4]; 2.56 in data set [5]; 32.7 in data set [6].

“AUUACCCAGGUCACCGAGUGA [Fam2.1 aminoacylation ribozyme variant]”: the self-aminoacylation in data set [1] is 8.63; in data set [2], 10.3; in data set [3], 4.17; in data set [4], 10.2; in data set [5], 4.49; in data set [6], 66.2.

Regarding “AAGUAUGCUAAUAGUCGCAAA [Fam3.1 aminoacylation ribozyme variant]”, the self-aminoacylation in data set [1] came out at 1.67; in data set [2] it was 1.7; in data set [3] it was 1.82; in data set [4], 1.26; in data set [5], 1.96; in data set [6], 3.99.

As to “AUUCGCCCAGGUCAUCGGGUG [Fam2.2 aminoacylation ribozyme variant]”, the self-aminoacylation in data set [1] is 4.75; in data set [2] it was 5.2; in data set [3], 4.14; in data set [4], 6.46; in data set [5] it was 3.96; in data set [6], 42.

“AUAACCCUGGUCAUCUAGUGA [Fam2.1 aminoacylation ribozyme variant]”: the self-aminoacylation is 8.88 in data set [1]; 10.1 in data set [2]; 4.52 in data set [3]; 9.2 in data set [4]; 4.77 in data set [5]; 45.7 in data set [6].

Consider “CUUCACCUAGGUCAUCGGGUU [Fam2.2 aminoacylation ribozyme variant]”, for which the self-aminoacylation in data set [1] was determined as 5.02; in data set [2] it was 5.02; in data set [3], 4.09; in data set [4], 7.09; in data set [5], 3.77; in data set [6], 18.1.
